One may read the Kd as a measure of binding affinity in units of concentration. Low readings indicate a tighter complex, high ones a looser complex.

The experiment addresses T1, human CEA His6-tag (Acro BioSystems, cat. hCE5-H5226) (Homo sapiens, UniProt P06731).
T1 construct: human carcinoembryonic antigen (CEA, CEACAM5), recombinant, His6-tagged; Glycosylated; also called CEACAM5; carcinoembryonic antigen-related adhesion molecule 5; source: bought: Acro BioSystems, produced in HEK293 cells
The experiment in a line: SPR; MFE-23 scFv dilution series (1-100 nM, 3-fold) over a freshly immobilized surface with CEA (2500 RU); 25 °C, PBST pH 7.4; Langmuir 1:1 fit. Conditions: both partners purified. A general note: Surface plasmon resonance follows binding to a sensor surface in real time, without labels.

T1 sequence (P06731 35-685): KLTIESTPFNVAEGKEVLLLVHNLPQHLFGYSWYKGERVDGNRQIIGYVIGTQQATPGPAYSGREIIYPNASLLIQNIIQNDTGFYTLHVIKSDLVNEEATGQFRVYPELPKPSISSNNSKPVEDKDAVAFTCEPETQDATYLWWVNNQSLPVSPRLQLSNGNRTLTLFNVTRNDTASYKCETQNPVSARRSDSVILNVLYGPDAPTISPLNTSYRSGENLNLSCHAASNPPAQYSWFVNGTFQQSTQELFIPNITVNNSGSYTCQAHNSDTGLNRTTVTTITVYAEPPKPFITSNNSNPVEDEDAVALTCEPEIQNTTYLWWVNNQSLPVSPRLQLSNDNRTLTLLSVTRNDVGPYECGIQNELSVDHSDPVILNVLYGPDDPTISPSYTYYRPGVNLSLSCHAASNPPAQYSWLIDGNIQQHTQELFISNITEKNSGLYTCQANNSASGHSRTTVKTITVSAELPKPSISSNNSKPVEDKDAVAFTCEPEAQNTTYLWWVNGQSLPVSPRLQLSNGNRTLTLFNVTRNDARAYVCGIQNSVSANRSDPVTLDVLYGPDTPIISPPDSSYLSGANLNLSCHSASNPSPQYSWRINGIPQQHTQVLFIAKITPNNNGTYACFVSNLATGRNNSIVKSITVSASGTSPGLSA

B1: anti-CEA scFv fragment MFE-23 (scFv, V domains shown)
VH: QVKLQQSGAELVRSGTSVKLSCTASGFNIKDSYMHWLRQGPEQGLEWIGWIDPENGDTEYAPKFQGKATFTTDTSSNTAYLQLSSLTSEDTAVYYCNEGTPTGPYYFDYWGQGTTVTVSS
VL: ENVLTQSPAIMSASPGEKVTITCSASSSVSYMHWFQQKPGTSPKLWIYSTSNLASGVPARFSGSGSGTSYSLTISRMEAEDAATYYCQQRSSYPLTFGAGTKLELK
notes: Expressed from pET22b(+) with a PelB signal peptide; also called MFE-23 scFv; scFv MFE-23; source: E. coli BL21(DE3), periplasmic preparation, purified (IMAC)
For the molecule B1, the dissociation constant Kd was around 15 nM.

Source of the values: article PMC12410180, “An anti-CEA affibody showing high-definition staining in human pancreatic cancer tissue sections and selective tumor targeting in vivo” (Translational Oncology, 2025).
